Assay results taken from article PMC9352680, “A comprehensive thermodynamic model for RNA binding by the Saccharomyces cerevisiae Pumilio protein PUF4”.
Numbering of substitutions follows the chain as printed. Numbers in names are those of the source.

T1: PUF4 RNA-binding domain (Saccharomyces cerevisiae, UniProt P25339 537-888)
T1 sequence: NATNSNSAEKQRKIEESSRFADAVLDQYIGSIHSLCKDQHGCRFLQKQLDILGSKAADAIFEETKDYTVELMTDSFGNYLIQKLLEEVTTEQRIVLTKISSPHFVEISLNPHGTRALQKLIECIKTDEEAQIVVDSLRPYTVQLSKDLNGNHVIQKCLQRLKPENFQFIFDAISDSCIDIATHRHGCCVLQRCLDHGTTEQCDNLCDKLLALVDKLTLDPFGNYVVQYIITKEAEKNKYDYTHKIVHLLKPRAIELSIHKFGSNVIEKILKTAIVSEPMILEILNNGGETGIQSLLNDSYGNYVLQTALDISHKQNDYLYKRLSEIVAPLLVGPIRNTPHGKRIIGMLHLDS

B1: Ic_S4_P5E.1_K5.1_C5.1_H5.1_A5.1_[T5C]_[A7T]_F5.1_[T8A]_[T9C]_[A10G]_T5.1 (ssRNA)
RNA: UUUGACAACUGAUCGUUCUUUCUUGUACUUACGUUCUUUCUCGAUCAGUUGUCUUU
B2: Ic_S4_P5E.1_K5.1_C5.1_H5.1_A5.1_[T5A]_[T6A]_F5.1_[T8C]_[T9A]_[A10C]_T5.1 (ssRNA)
RNA: B1 RNA with C28A, U29A, U30A, A31C, C32A, G33C
B3: Ic_S4_P5E.1_K5.1_C5.1_H5.1_A5.1_[T5C]_[A7G]_F5.1_[T8G]_T5.1 (ssRNA)
RNA: B1 RNA with U30G, A31G, C32U, G33A
B4: Ic_S4_P5E.1_K5.1_C5.1_H5.1_A5.1_[T6A]_[A7C]_F5.1_[T8C]_[T9C]_[A10G]_T5.1 (ssRNA)
RNA: B1 RNA with C28U, U29A, U30C, A31C
B5: Ic_S4_P5E.1_K5.1_C5.1_H5.1_A5.1_[T5A]_F5.1_[T8C]_[T9C]_[A10T]_T5.1 (ssRNA)
RNA: B1 RNA with C28A, U30A, A31C, G33U
B6: Ic_S4_P5E.1_K5.1_C5.1_H5.1_A5.1_[T5C]_[T6G]_[A7C]_F5.1_[T8A]_[T9G]_[A10C]_T5.1 (ssRNA)
RNA: B1 RNA with U29G, U30C, C32G, G33C
B7: Ic_S4_P5E.1_K5.1_C5.1_H5.1_A5.1_[T5A]_[T6C]_F5.1_[T8G]_[T9C]_[A10T]_T5.1 (ssRNA)
RNA: B1 RNA with C28A, U29C, U30A, A31G, G33U
B8: Ic_S4_P5E.1_K5.1_C5.1_H5.1_A5.1_[T5A]_[A7C]_F5.1_[T8A]_[A10C]_T5.1 (ssRNA)
RNA: B1 RNA with C28A, U30C, C32U, G33C
B9: Ic_S4_P5E.1_K5.1_C5.1_H5.1_A5.1_[T6C]_[A7G]_F5.1_[T8C]_[T9C]_T5.1 (ssRNA)
RNA: B1 RNA with C28U, U29C, U30G, A31C, G33A
B10: Ic_S4_P5E.1_K5.1_C5.1_H5.1_A5.1_[T5A]_[T6C]_[A7T]_F5.1_[T8A]_[T9A]_T5.1 (ssRNA)
RNA: B1 RNA with C28A, U29C, C32A, G33A
B11: Ic_S4_P5E.1_K5.1_C5.1_H5.1_A5.1_[T5C]_[T6A]_[A7T]_F5.1_[T8C]_[T9C]_T5.1 (ssRNA)
RNA: B1 RNA with U29A, A31C, G33A
B12: Ic_S4_P5E.1_K5.1_C5.1_H5.1_A5.1_[T5G]_[T6C]_[A7T]_F5.1_[T8C]_[T9G]_[A10T]_T5.1 (ssRNA)
RNA: B1 RNA with C28G, U29C, A31C, C32G, G33U
B13: Ic_S4_P5E.1_K5.1_C5.1_H5.1_A5.1_[T6C]_F5.1_[T9G]_[A10C]_T5.1 (ssRNA)
RNA: B1 RNA with C28U, U29C, U30A, A31U, C32G, G33C
B14: Ic_S4_P5E.1_K5.1_C5.1_H5.1_A5.1_[T5G]_[T6C]_[A7G]_F5.1_[T9A]_T5.1 (ssRNA)
RNA: B1 RNA with C28G, U29C, U30G, A31U, C32A, G33A
B15: Ic_S4_P5E.1_K5.1_C5.1_H5.1_A5.1_[A7G]_F5.1_[T8C]_[T9C]_[A10T]_T5.1 (ssRNA)
RNA: B1 RNA with C28U, U30G, A31C, G33U
B16: Ic_S4_P5E.1_K5.1_C5.1_H5.1_A5.1_[T5A]_[T6A]_[A7C]_F5.1_[T8C]_[T9G]_[A10C]_T5.1 (ssRNA)
RNA: B1 RNA with C28A, U29A, U30C, A31C, C32G, G33C
B17: Ic_S4_P5E.1_K5.1_C5.1_H5.1_A5.1_[T5C]_[T6C]_[A7T]_F5.1_[T8A]_[T9G]_[A10C]_T5.1 (ssRNA)
RNA: B1 RNA with U29C, C32G, G33C
B18: Ic_S4_P5E.1_K5.1_C5.1_H5.1_A5.1_[T5C]_[T6A]_F5.1_[T9C]_[A10T]_T5.1 (ssRNA)
RNA: B1 RNA with U29A, U30A, A31U, G33U
B19: Ic_S4_P5E.1_K5.1_C5.1_H5.1_A5.1_[T5C]_[T6A]_[A7G]_F5.1_[A10G]_T5.1 (ssRNA)
RNA: B1 RNA with U29A, U30G, A31U, C32U
B20: Ic_S4_P5E.1_K5.1_C5.1_H5.1_A5.1_[T5G]_[T6C]_F5.1_[T8C]_[A10T]_T5.1 (ssRNA)
RNA: B1 RNA with C28G, U29C, U30A, A31C, C32U, G33U
B21: Ic_S4_P5E.1_K5.1_C5.1_H5.1_A5.1_[T6A]_[A7T]_F5.1_[T9C]_[A10C]_T5.1 (ssRNA)
RNA: B1 RNA with C28U, U29A, A31U, G33C
B22: Ic_S4_P5E.1_K5.1_C5.1_H5.1_A5.1_[T5A]_F5.1_[T8A]_[T9C]_[A10T]_T5.1 (ssRNA)
RNA: B1 RNA with C28A, U30A, G33U
B23: Ic_S4_P5E.1_K5.1_C5.1_H5.1_A5.1_[A7T]_F5.1_[T9C]_[A10T]_T5.1 (ssRNA)
RNA: B1 RNA with C28U, A31U, G33U
B24: Ic_S4_P5E.1_K5.1_C5.1_H5.1_A5.1_[T6C]_[A7C]_F5.1_[T8A]_[T9G]_[A10C]_T5.1 (ssRNA)
RNA: B1 RNA with C28U, U29C, U30C, C32G, G33C
B25: Ic_S4_P5E.1_K5.1_C5.1_H5.1_A5.1_[T5C]_[T6A]_[A7T]_F5.1_[T8A]_[T9A]_[A10C]_T5.1 (ssRNA)
RNA: B1 RNA with U29A, C32A, G33C
B26: Ic_S4_P5E.1_K5.1_C5.1_H5.1_A5.1_[A7C]_F5.1_[T9G]_[A10G]_T5.1 (ssRNA)
RNA: B1 RNA with C28U, U30C, A31U, C32G
B27: Ic_S4_P5E.1_K5.1_C5.1_H5.1_A5.1_[T5C]_[T6A]_F5.1_[T8A]_[A10C]_T5.1 (ssRNA)
RNA: B1 RNA with U29A, U30A, C32U, G33C
B28: Ic_S4_P5E.1_K5.1_C5.1_H5.1_A5.1_[T5G]_[T6C]_F5.1_[T8G]_[A10C]_T5.1 (ssRNA)
RNA: B1 RNA with C28G, U29C, U30A, A31G, C32U, G33C

Each binder was assayed against T1, PUF4 RNA-binding domain (assay: Mg; RNA-MaP; 20 mM Na-HEPES pH 7.4, 30 mM KOAc, 0.75 mM MgCl2, 0.1% Tween-20, 5% glycerol, 0.1 mg/mL BSA, 2 mM DTT; 25 C; 0.0125-409.6 nM protein). Conditions: tags: N-His6-TEV cleaved; C-SNAP kept, Cy3B-labelled; label: tethered on chip by stalled RNA polymerase.
Binder B1 has a Kd of 561 nM.
Binder B2 has a Kd of 190 nM.
Work on B3 yielded a Kd of 34 nM.
B4 showed a Kd of 117 nM.
B5 gave a Kd of 379 nM.
With B6 the Kd was 882 nM.
With B7 the Kd was 662 nM.
With B8 the Kd was 432 nM.
Work on B9 yielded a Kd of 850 nM.
For B10, the Kd was 233 nM.
B11 was tested, and the Kd was 20.4 nM.
In the case of B12, the Kd is reported as 476 nM.
B13 gave a Kd of 14.6 nM.
For B14, the Kd was 25.3 nM.
B15 showed a Kd of 402 nM.
B16 showed a Kd of 703 nM.
B17 was tested, and the Kd was 74.3 nM.
For B18, the Kd was 19.7 nM.
For B19, the Kd was 27.4 nM.
B20 showed a Kd of 172 nM.
With B21 the Kd was 3.74 nM.
Work on B22 yielded a Kd of 561 nM.
Work on B23 yielded a Kd of 15.6 nM.
Work on B24 yielded a Kd of 1010 nM.
B25 showed a Kd of 7.13 nM.
B26 gave a Kd of 27.2 nM.
For B27, the Kd was 26.1 nM.
B28 showed a Kd of 976 nM.
Work on UCUCUUUGUAUUUUUUCUCUU (ssRNA) [Ib_S1_P4E.1_K4.1_C4.1_H4.1_A4.1_[A6T]_F4.1_[A9T]_T4.1] yielded a Kd of 20.9 nM.
